{"source": "paper PMC10998906", "key": {"[1]": {"biological_target": "HA GCN4 (NL03 HA fused to a GCN4 trimerization domain) (influenza A virus A/Netherlands/213/2003(H3N2))", "assay": "SEC"}, "[2]": {"biological_target": "HA GCN4 (NL03 HA fused to a GCN4 trimerization domain) (influenza A virus A/Netherlands/213/2003(H3N2))", "assay": "negative-stain EM"}}}
{"substance": "HA GCN4 (NL03 HA fused to a GCN4 trimerization domain) (domain or fragment)", "values": [{"measurement": "stoichiometry N", "setting": "[1]", "value": 3}, {"measurement": "stoichiometry N", "setting": "[2]", "value": 3}]}
